Where “and” joins values, the source holds several entries; their conditions need not be identical. Equal entries are not always repeated. Where two headings read alike, the source gives them in different places.

In test [1] the target is T1, GDNF (Homo sapiens, UniProt P39905).
T1 construct: purchased PeproTech, Ltd. or R&D Systems, Inc
T1 sequence (P39905 78-211 limits assumed): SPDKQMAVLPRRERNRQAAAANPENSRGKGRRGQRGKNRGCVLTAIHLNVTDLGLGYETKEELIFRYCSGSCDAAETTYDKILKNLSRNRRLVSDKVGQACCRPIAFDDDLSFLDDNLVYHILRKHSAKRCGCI
Briefly: SPR: competition of GDNF binding to heparin-BSA cuvette by heparin and desulfated heparins. The note with it: competing out GDNF binding to heparin-BSA cuvette. On the procedure: (§1) Specifically desulfated heparins (Takano et al., 1998) were used to assess the involvement of different sulfate groups in the GDNF-heparin interaction by following direct binding to GDNF cuvette, or by competing out GDNF binding to the heparin-BSA cuvette. Dissociation constants were determined from direct binding using increasing GDNF concentrations and by fitting the data to R=(Rmax*C)/(Kd+C) for heparin. For desulfated heparins, the best fit was achieved using equation R=(Rmax1*C)/(Kd1+C)+(Rmax2*C)/(Kd2+C), where Kd1 and Kd2 are apparent dissociation constants derived for two heparin sites of different affinities with maximum equilibrium response Rmax1 and Rmax2, respectively.
A general note: In SPR one partner is held on a chip, and binding of the other changes the refractive index at the surface.

For test [2], the target named is T1, GDNF. Briefly: SPR: direct binding of heparin or desulfated heparins to GDNF cuvette. On the procedure:
as §1

In a further test the test system is SHEP cells. The test can be described thus: SHEP cell adhesion and spreading assay on immobilized proteins. It is filed as cell-based, human. To be noted: for adherence and spreading of SHEP cells on immobilized protein: protein immobilized on plastic microplate. On the procedure:
Cell adhesion assays were essentially performed as described elsewhere (Weinacker et al., 1994). To prepare protein-coated surfaces the protein of interest (10 μg/ml in PBS) was applied to 96-well ELISA (Greiner) plates or to glass cover slips for 12-18 hours at +4° C. After incubation, the surfaces were washed with PBS and blocked with 1% globulin-free BSA for two hours. Some GDNF coated surfaces were incubated with 20 μg/ml of G-90 (Amgen) GDNF function-blocking antibodies (Xu et al., 1998) for 2 hours at room temperature.
Subconfluent SHEP cells were harvested in PBS supplemented with 10 mM EDTA for 5 min at 37° C. Cells were washed with incubation buffer (RPMI 1640, 0.2% BSA, 15 mM HEPES pH 7.2) and 10000-40000 cells/well plated on the protein coated surface. Plates were centrifuged for 5 min at 10 g and incubated for one hour at 37° C. in 5% CO2. After incubation cells were washed with PBS, fixed with methanol supplemented with crystal violet for 15 min at room temperature and washed again with PBS. The remaining cells were counted using a Leica DMIRB inverted microscope with 10× objective in 5 fields per well.
Some cells were pretreated with heparinase III, PI-PLC (see above), 0.3 U/ml chodroitinase ABC for one hour at 37° C., 5% CO2, or with 20 μg/ml of NCAM blocking antibodies (AB5032, Chemicon Inc.) for 15-30 min on ice.
After one hour of incubation in serum-free medium unattached cells were removed by washing. The remaining cells were stained and counted on Leica DMIRB inverted microscope with a 10× objective in 5 fields per well and the resulting cell number was calculated for the whole well.
Live SHEP cells spreading on immobilized GDNF were imaged for 20 minutes using the Till imaging system with an Imago-QE digital camera (Till Photonics) equipped with heating (+37° C.) and CO2 supply (5%) chambers.

Test [3] in a line: SPR (IAsys): heparin interaction with GFLs cuvette. Format: binding. The note with it: for ka (×10^−5) (M^−1s^−1) / kdis: heparin in solution; for Kd = kdis/ka: from dynamics. Here is the method:
(§2) The affinities of GFLs for heparin and heparin-like molecules (e.g. syndecan-3) were determined by plasmon surface resonance using the IAsys system (Affinity Sensors, Cambridge, UK). Planar aminosilane cuvettes (Affinity Sensors) were used for protein coupling to avoid problems with mass transport, which occur frequently with matrix surfaces. In the initial approach, heparin-BSA was immobilized to the cuvette surface using the manufacturer's instructions and different ligand concentrations were used to determine association (ka) and dissociation (kdis) rates using the IAsys Fastfit software. The dissociation constant Kd was determined from the binding dynamics as […], or from equilibrium response (R) using a simple Langmuir fit: R=(Rmax*C)/(Kd+C), where C is the ligand concentration. […] The dissociation constants were determined from binding dynamics and equilibrium response. The same cuvettes were used to test binding of heparan sulfate proteoglycan syndecan-3, which was purified as an ectodomain from early postnatal rat brains by HB-GAM affinity chromatography (Raulo et al., 1994).
(§3) Binding was analyzed using IAsys cuvettes with immobilized heparin-BSA or GFLs. The dissociation constant Kd was determined from dynamics of association and dissociation (Kd=kdis/ka), or from equilibrium response R (R=(Rmax*C)/(Kd+C), where C is ligand concentration).

The nature of test [4]: Binding of ^125I-labeled GFLs to heparin-sepharose column, step NaCl elution. The note with it: for NaCl concentration at elution from heparin-sepharose column: ^125I-GFLs, step NaCl gradient; for binding to heparin-sepharose column: ^125I-labeled GFLs. On the procedure:
GFL iodination was performed as described (Lindahl et al., 2001). Heparin-sepharose column (Amersham Biosciences) chromatography was performed to assess GFL binding to heparin. GDNF, ARTN, NRTN and PSPN were purchased from PeproTech, Ltd. or R&D Systems, Inc. GFLs were enzymatically labeled with carrier-free [^125I]NaI (Amersham Biosciences) by the lactoperoxidase method to a specific activity of 100000-200000 cpm/ng as described elsewhere (Lindahl et al., 2001). 15000-20000 cpm of iodinated GFLs, together with 10 μg of the same unlabeled protein as a carrier, were injected into a 1 ml heparin-sepharose column (Amersham Biosciences) in phosphate buffer pH 7.2 containing 100 mM NaCl and 10 mg/ml of BSA. After washing with 5 volumes of the same buffer, iodinated GFLs were eluted from the column by step elution (2 ml) with increasing NaCl concentration. The resulting fractions were counted on Rackbeta 1214 (LKB/Wallac) scintillation counter.

The nature of test [5]: SPR (IAsys): GFLs interaction with heparin-BSA cuvette. It is filed as binding. The note with it: for ka (×10^−5) (M^−1s^−1) / kdis: GFL in solution; for Kd = kdis/ka: from dynamics; for Kd: from equilibrium response. On the procedure:
as §2, §3

Another test addresses T2, syndecan-3 ectodomain (Rattus norvegicus, UniProt P33671).
T2 construct: purified as an ectodomain from early postnatal rat brains; from tissue; host or cells: early postnatal rat brain
Briefly: SPR (IAsys): syndecan-3 ectodomain interaction with GFLs cuvette. It is filed as binding. To be noted: syndecan-3 ectodomain in solution. On the procedure: as §2, §3

The test system of test [6] is rat embryonic hippocampal neurons. The test can be described thus: Neurite outgrowth assay in E17 rat hippocampal neurons. It is filed as cell-based. To be noted: E17 rat hippocampal neurons. On the procedure: Hippocampi were dissected from E17 embryonic rat brains under the microscope and transferred to the preparation media (HBBS without Ca^2+ and Mg^2+ supplemented with 1 mM sodium pyruvate (Gibco) and buffered by 10 mM Hepes pH 7.2), then partially digested by papain and triturated in the preparation media supplemented with DNase I. Cells were washed with HBBS containing Ca^2+ and Mg^2+ and transferred to the growth media (Neurobasal media with B27 supplement, 2 mM L-glutamine, 25 μM glutamic acid and penicillin and streptomycin (Gibco)). For enzymatic treatments neurons were kept in the growth media supplemented with 0.2% BSA at +37° C. for one hour. After the treatment cells in the same media were seeded on the protein-coated cover slips (see above) and after 10 min, the media was changed for B27-free media. Neurons were incubated at +37° C., 5% CO2 for 18 hours.
For immunocytochemistry neurons were washed with PBS and fixed with 4% PFA, permeabilized with 0.1% Triton X-100 and stained with rabbit polyclonal antiserum to Protein Gene Product 9.5 (Affiniti), neuron-specific Class III tubulin-βIII clone Tuj1 antibodies (BABCO) or with antibodies against the neurofilament triplet, 13AA8 (Arumäe et al., 1993). Secondary antibodies were goat anti-rabbit or anti-mouse Alexa488-conjugated (Molecular Probes).
The immunostained cultures were viewed using the ×20 objective of a Zeiss Axioplan 2 fluorescent microscope (Zeiss). Neurons with at least two times longer than cell body diameter processes were considered process-bearing. Three cover slips were used in parallel and 100 neurons per cover slip were counted. Results were derived from 3 to 5 independent experiments.

[7] abbreviates: apparent Kd from equilibrium response, read-out: Kd1.
Where [8] appears, read: apparent Kd of second site, two-site fit, read-out: Kd2.
Setting [9] is: GFLs cuvette, from equilibrium response, read-out: Kd (equilibrium).
Setting [10] is: pretreatment of cells with SFK inhibitor.

T2 sequence (P33671 45-387 limits assumed): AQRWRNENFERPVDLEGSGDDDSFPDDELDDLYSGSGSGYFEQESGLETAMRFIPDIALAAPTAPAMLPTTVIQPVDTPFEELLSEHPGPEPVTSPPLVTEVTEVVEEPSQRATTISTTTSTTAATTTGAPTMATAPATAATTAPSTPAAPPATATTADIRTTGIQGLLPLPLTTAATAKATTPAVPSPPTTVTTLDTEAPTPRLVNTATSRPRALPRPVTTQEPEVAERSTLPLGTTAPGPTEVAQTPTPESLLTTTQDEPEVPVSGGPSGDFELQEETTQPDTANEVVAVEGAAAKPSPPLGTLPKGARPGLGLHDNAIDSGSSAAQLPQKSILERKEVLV

For the molecule 6-O-desulfated heparin, the “IC50” value at GDNF [1] came out at 1.3 ng/mL. For the same molecule, the Kd at GDNF [2] (setting [7]) is 36.3 ± 4.6 nM; on GDNF [2] (setting [8]), 18000 nM and 18100 nM.

For “ARTN: artemin, secreted growth factor, GDNF family ligand”, the “adherence and spreading of SHEP cells on immobilized protein” value (from here on “adherence and spreading of SHEP cells”) in the test on SHEP cells was “induced adherence and spreading”. In test [3] (GFLs cuvette), the “ka (×10^−5) (M^−1s^−1)” value was 8.0 (×10^−5) M^−1s^−1, the “kdis” value was found to be 0.042 s⁻¹ and the “Kd = kdis/ka” value is 44.7 ± 12.3 nM. Also, the Kd in test [3] (setting [9]) was 13 ± 3.9 nM. Besides, in test [4], the “NaCl concentration at elution from heparin-sepharose column” value (“NaCl concentration at elution” below) lay within 1 to 1.5 M and the “binding to heparin-sepharose column” value was “bind strongly to heparin”. In addition, in test [5], the “ka (×10^−5) (M^−1s^−1)” value is given as 0.09 (×10^−5) M^−1s^−1, the “kdis” value stood at 0.0013 s⁻¹, the “Kd = kdis/ka” value was determined as 148 ± 39 nM and the Kd was found to be 187 ± 34 nM. Besides, the “ka (×10^−5) (M^−1s^−1)” value in the test with syndecan-3 ectodomain is listed as 6.3 ± 0.7 (×10^−5) M^−1s^−1.

Take `CN(C)S(=O)(=O)c1ccc2c(c1)/C(=C/c1cc3c([nH]1)CCCC3)C(=O)N2` [SU6656, reference compound]: the “effect of inhibitor on neurite outgrowth on immobilized GDNF” value in test [6] is on record as “prevented neurite outgrowth”. Further, in the test with SHEP cells (setting [10]), the “effect on SHEP cell adherence on immobilized GDNF” value is listed as “did not impair their adherence” and the “effect on SHEP cell spreading on immobilized GDNF” value is on record as “diminished their spreading”.

Consider 2-O-desulfated heparin, for which, at GDNF [1], the “IC50” value was 4.3 ng/mL. Besides, the figures for the Kd on GDNF [2] (setting [7]) and at GDNF [2] (setting [8]) were 35.4 ± 7.5 nM and 9500 nM, respectively.

On to N-desulfated heparin, for which, at GDNF [1], the half-inhibitory concentration (IC50) was found to be 2.3 ng/mL. The Kd was determined as 29.1 ± 6.4 nM at GDNF [2] (setting [7]) and 11400 nM at GDNF [2] (setting [8]).

B1: PSPN: persephin, secreted growth factor, GDNF family ligand (protein)
chain: ALSGPCQLWSLTLSVAELGLGYASEEKVIFRYCAGSCPRGARTQHGLALARLQGQGRAHGGPCCRPTRYTDVAFLDDRHRWQRLPQLSAAACGCGG
For B1, in test [6] (18 hours), the “neurite outgrowth on immobilized protein” value is given as “failed to form processes”. Moreover, the “adherence and spreading of SHEP cells” value in the test on SHEP cells was “failed to adhere and spread”. Also, in test [3] (GFLs cuvette), the “ka (×10^−5) (M^−1s^−1)” value is listed as 0.02 (×10^−5) M^−1s^−1 and the “kdis” value came out at 0.064 s⁻¹. Further, the Kd in test [3] (SPR, dynamics, read-out: Kd for heparin (dynamics)) was 29100 nM. Also, the Kd in test [3] (SPR, equilibrium, read-out: Kd for heparin (equilibrium)) amounted to 11100 nM. Moreover, in test [4], the “NaCl concentration at elution” value is recorded as 0.5 M and the “binding to heparin-sepharose column” value is reported as “does not”. Besides, in test [5], the “ka (×10^−5) (M^−1s^−1)” value is 0.87 (×10^−5) M^−1s^−1, the “kdis” value was determined as 0.093 s⁻¹, the “Kd = kdis/ka” value came to 1072 ± 118 nM and the Kd is greater than 1000 nM.

B2: NRTN: neurturin, secreted growth factor, GDNF family ligand (protein)
chain: ARLGARPCGLRELEVRVSELGLGYASDETVLFRYCAGACEAAARVYDLGLRRLRQRRRLRRERVRAQPCCRPTAYEDEVSFLDAHSRYHTVHELSARECACV
B2: the “adherence and spreading of SHEP cells” value in the test with SHEP cells is “induced adherence and spreading”. For the same molecule, in test [3] (GFLs cuvette), the “ka (×10^−5) (M^−1s^−1)” value was 1.9 (×10^−5) M^−1s^−1, the “kdis” value is 0.022 s⁻¹ and the “Kd = kdis/ka” value amounted to 114 ± 44 nM. In test [3] (setting [9]), the Kd was determined as 23.7 ± 7.7 nM. Besides, the Kd in test [3] (SPR, dynamics, read-out: dynamics-derived Kd for heparin) was greater than 100 nM. In addition, in test [4], the “NaCl concentration at elution” value worked out at 1.5 M and the “binding to heparin-sepharose column” value is listed as “bind strongly to heparin”. For the same molecule, in test [5], the “ka (×10^−5) (M^−1s^−1)” value is on record as 3.2 (×10^−5) M^−1s^−1, the “kdis” value is 0.018 s⁻¹, the “Kd = kdis/ka” value worked out at 59.4 ± 6.2 nM and the Kd came out at 47 ± 7 nM. For the same molecule, the “ka (×10^−5) (M^−1s^−1)” value in the test with syndecan-3 ectodomain was 7.5 ± 1.6 (×10^−5) M^−1s^−1.

A word on the IC50: it is the midpoint of a concentration-inhibition curve.

(Values after patent US8034572B2, “Receptor for GDNF family ligands” (priority 2006, dated 2011).)
